Source: the supplement of paper PMC10567573
± gives the standard deviation.

Experiment: protein stability index of a GFP-peptide fusion (GPS, HEK-293T) (PSI 1-6); higher = more stable
Details: c terminus: a fixed tail appended
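Also: 24-mer peptide tiles fused after GFP, lentivirally expressed, FACS-sorted into six equal bins by GFP/DsRed ratio, decoded by Illumina sequencing, PSI is the read-weighted mean bin number.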

Sequence	protein stability index (treatment: DMSO)	protein stability index (treatment: MLN4924 1 uM, 8 h)
LIYVVIDLPINVFKLLAGRWPFDH [EDNRA]	2.27 ± 1	3.04 ± 0.23
RPRQRQRVYPKCTWLTTPKSTWPR [TCF25]	3.17 ± 0.43	3.23 ± 0.2
DEQEKGIVTKFYQLSATGQKLYVR [FAN1]	2.92 ± 0.22	2.94 ± 0.54
LLVQFVCQEYLARNARIVHLVEET [CPXM2]	3.82 ± 0.26	2.63 ± 0.95
ELWIYNMETGRWKKINTEGDVPPS [KLHDC2]	3.43 ± 0.2	3.61 ± 0.27
LNRSESDIRYLLGYVSQQGGQRST [FEM1B]	3.73 ± 0.19	3.59 ± 0.33
HEEEVSVLRCQLGDRLNVEVDAAP [KRT36]	5.17 ± 0.26	4.95 ± 0.32
VTTHQPTNLVLPSNGSMHNYCPQQ [EDNRA]	3.75 ± 0.2	3.77 ± 0.056
CALNALTTTVCLVAAALRYLQIFA [FAM189A2]	2.75 ± 0.37	3.1 ± 0.23
WIVDKQHVYIGSAGLDWQSLGQMK [PLD5]	2.44 ± 0.42	2.16 ± 0.24
VTLMVAKWTGDFFNKGIYDIHVGL [CLCN6]	2.46 ± 0.4	3.58 ± 0.26
PDDYRCSYRIHNGQKLVVPGLLGS [FBXO3]	2.68 ± 0.46	2.66 ± 0.34
ESGDEVPVELYTAFQHTPTSITLT [KMT2E]	2.73 ± 0.97	3.65 ± 0.62
DDRVLSSLVRDTIARVHGTFGAAA [POP5]	2.89 ± 0.29	2.96 ± 0.23
PRVPEEAAQDRPMSPGDCPPETTE [YJU2B]	5.46 ± 0.26	5.4 ± 0.37
RGLHEDLQGVPERLLGTAGTEEKK [VTI1B]	5.38 ± 0.07	5.58 ± 0.26
FLDLLSVFSDTATPDIKSHYAFRI [CIB1]	2.86 ± 0.6	2.85 ± 0.76
VNVDNLLAAAVVQEHSNSVGGQDT [C18orf25]	5.05 ± 0.21	4.92 ± 0.43
PVTPLGLQNEVPPQPDPVFLEALS [SERTAD3]	4.55 ± 0.33	4.46 ± 0.27
KNELERDSKIVVPPLPGKALKRQL [SNX12]	4.5 ± 0.26	4.56 ± 0.2
SLSFEDFLDLLSVFSDTATPDIKS [CIB1]	2.26 ± 0.35	2.29 ± 0.33
DEELGGSSRVPVGGGPEATLSISD [ZBTB22]	5.37 ± 0.18	5.42 ± 0.06
VLVHCEAGISRSPTICMAYLMKTK [DUSP5]	2.77 ± 0.61	2.39 ± 0.41

Sequence	protein stability index (treatment: DMSO)	protein stability index (treatment: MLN4924 1 uM, 8 h)
RLFTQLKFGVVQTSVEECSQKGCL [CLCN6]	2.29 ± 0.46	2.61 ± 0.27
TLIVVDASGLGLEITTQFLIYASY [SLC19A2]	3.32 ± 0.54	3.32 ± 0.4
TPYVRWNYVAKNFAQALGCVLYAC [SOAT2]	2.7 ± 0.84	2.41 ± 0.34
HWALRVTPGLGVVAVLLLFLVVRE [SPNS1]	2.83 ± 0.47	2.79 ± 0.59
GGKYLGRTKVVKPYSTVDNPVYYG [EFHC1]	2.87 ± 0.33	2.97 ± 0.33
YKPPALKKSNSPGTASSGSSRLPQ [ZC2HC1A]	4.46 ± 0.079	4.51 ± 0.2
NMERFGEDNLEDDDVEMKNGITQG [CDC14A]	5.54 ± 0.19	5.53 ± 0.23
LEMCVDARTFGNEARFIRRSCTPN [KMT2E]	3.19 ± 0.21	3.13 ± 0.16
EFKADAQLLLHNTVIFYGADSEQA [ZMYND11]	3.06 ± 0.32	3.32 ± 0.23
DGKLQLLQKLLSGRSREELDELTG [FEM1A]	3.24 ± 0.31	3.29 ± 0.26
SFGVDEEERVRVLQGVRLSENVVN [CHCHD6]	4.39 ± 0.2	4.59 ± 0.15
RMLHRSTQTTNDGVCQSMCHDKYT [ZMYND11]	3.94 ± 0.18	4.04 ± 0.32
LLQTQHALGDAFADLSQKSPELQE [ARFIP2]	4.7 ± 0.22	4.77 ± 0.21
DMFDADGGGDISVKELGTVMRMLG [TNNC2]		2.58 ± 0.16
ADGQESTPPTPAPTSGIVGALMEV [WASL]	4.86 ± 0.1	4.56 ± 0.17
PELTAALRDIRAQYESIAAKNLQE [PRPH]	3.52 ± 0.65	3.8 ± 0.48
KPLDLSDSTLSYTETEATNSLITA [SMAD6]	4.82 ± 0.2	4.92 ± 0.059
PPPPPSPSSLGPLLPLQREPLYNW [BTBD1]	3.78 ± 0.15	3.73 ± 0.25
RYALQLQQIQGLISSIEAQLSELR [KRT13]	3.17 ± 0.14	3.38 ± 0.35
NFQFLPQVNGHPDPFDEIILFSLP [PTPN9]	2.4 ± 0.29	2.37 ± 0.19
YEPLLSRVQAALVWERPARSALWC [RETREG3]	2.39 ± 0.53	2.12 ± 0.22
NKLQTLSPSHKGIAAPHAGANVKP [ZC2HC1A]	4.35 ± 0.16	4.457 ± 0.035
IALVENIPEGLNYSENAPFHLSLF [PLD5]	2.2 ± 0.83	2.25 ± 0.24

Sequence	protein stability index (treatment: DMSO)	protein stability index (treatment: MLN4924 1 uM, 8 h)
THLILHRDLKTQNILLDKHRMVVK [NEK8]	2.78 ± 0.11	2.83 ± 0.17
YLDPSVLSGVSCFVMFLCLADYLV [ARL6IP1]	2.98 ± 0.21	2.97 ± 0.39
IQSWDINSRRNINYRSFEPILRLL [ZER1]	2.31 ± 0.099	2.41 ± 0.21
MLYAKPPPTINGIKGLQRKERLKP [KRT34]	3.1 ± 0.28	3.43 ± 0.19
TVQSRPRIDGKLDSPSRSPSKVEV [C2CD2L]	4.78 ± 0.21	4.65 ± 0.37
RIHSGEEPHKCPECGKRFLRSSDL [ZNF449]	3.51 ± 0.73	4.09 ± 0.34
SMNFSMMSTNTVGLGLPMSRSQNT [CLINT1]	3.19 ± 0.36	3.44 ± 0.38
VGYTTLVGNNHESWGWDLGRNRLY [SPSB1]	2.26 ± 0.35	2.12 ± 0.25
EHPFLVNLWYSFQDEEDMFMVVDL [STK32A]	2.9 ± 0.73	2.63 ± 0.58
SSTNFAMKRDVQEGQARCLAHLGR [C8orf76]	3.66 ± 0.058	3.68 ± 0.28
PGKALGPAATMAVELHYEEGSPRN [C2CD2L]	4.81 ± 0.29	4.82 ± 0.21
SQDALRVVSTSGEQMKVYKCEHCR [IKZF1]	4.29 ± 0.33	4.38 ± 0.3
PFKQVAEMLSASRYPTISMVKPLL [ZBED1]	1.97 ± 0.4	2.19 ± 0.38
TNFVSRYDPRFNSWIQLPPMQERR [KLHL14]	3.22 ± 0.084	3.34 ± 0.31
LTYGEVRNSKASAYCLDQGAEDGD [GALNT9]	5.37 ± 0.29	5.3 ± 0.29
QDLKYISPEIMASVLNGKFANLIK [CDC25A]	2.21 ± 0.22	2.24 ± 0.17
SSSGDLADLENEDIFPELDDILYH [DLC1]	4.77 ± 0.24	4.76 ± 0.2
LGLGSMIGTMAGITTPIIDTFKVP [SLC6A17]	2.55 ± 0.12	2.51 ± 0.31
DMIYVSGGFDGSRRHTSMERYDPN [KLHL12]	3.85 ± 0.15	4 ± 0.3
LTRPVPAGADLPPPKIRLKPHRLG [PWWP2B]	3.91 ± 0.29	3.73 ± 0.21
VKVHGLLKTFVKQTDHIKGIRQIT [GFOD1]	2.53 ± 0.38	2.34 ± 0.41
AKKLPPVQESQSERLQAAGTDSAG [ELOA2]	5.2 ± 0.18	5.09 ± 0.24
YRNLTHNPPSDFSFQNMNSKRKAE [STK38L]	4.47 ± 0.17	4.58 ± 0.087

Sequence	protein stability index (treatment: DMSO)	protein stability index (treatment: MLN4924 1 uM, 8 h)
RLLMSQADKMTAEEVDQMFQFASI [MYL5]	3.06 ± 0.26	3.1 ± 0.37
NPRAPVIIYKQTKGGVQNFNKDLV [CEP70]	2.52 ± 0.18	2.46 ± 0.25
NPALEGLTQPLQGGTPHCEPCQLP [DNAAF3]	4.89 ± 0.36	4.97 ± 0.24
APLQADLTEQVWKVQDALQNQSDS [SCARA5]	5.26 ± 0.24	5.24 ± 0.28
EFKSSFSQSFSLYVKYQVAIHQDP [ATE1]	2.63 ± 0.95	2.52 ± 0.95
IVVHCSAGIGRTGTFCSLDICLAQ [PTPN9]	3.85 ± 1	3.45 ± 0.19
VVVFKALVTTHHLMVHGNERFIQY [SNAP91]	3.2 ± 0.42	3.02 ± 0.5
CCIDWTHVTDPLIGCKKPVSASGK [SMG5]	3.05 ± 0.21	3.09 ± 0.18
TLWDVFGANKEVQELLERGLLQLD [RSAD1]	2.33 ± 0.25	2.64 ± 0.11
RNRPSFDAILYYYQSGGRIRRPVN [KCNA3]	2.3 ± 0.22	2.58 ± 0.31
WKLQKKEHPPEVSRETQRTPMNHQ [FBXO34]	4.52 ± 0.11	4.49 ± 0.16
KNEVGGLIKALKIFQEKHVNLLHI [TPH1]	2.02 ± 0.43	2.12 ± 0.011
FVRGQEFKAHKSVLAARSPVFNAM [SPOPL]	2.66 ± 0.45	2.83 ± 0.34
GLDIGAQGEPLGYRQDDPSYRSFH [CTNNB1]	4.14 ± 0.12	4.22 ± 0.19
GEGTGSPPKWQIGEQEFEALMRML [ADD1]	3.29 ± 0.45	3.2 ± 0.31
LENVLDPDSFYELKSQPLPLRSSL [TFE3]	3.4 ± 0.27	3.49 ± 0.21
ETPGSAVDYPLHDLVLHTNYTATV [TNXB]	2.83 ± 0.18	2.87 ± 0.55
VIQPALPGQPLPGASVRGLHPVQK [TRAF3IP2]	3.76 ± 0.34	3.66 ± 0.39
AQLSELRCEMEAQNQEYKMLLDIK [KRT15]	3.65 ± 0.33	3.65 ± 0.38
SSLFSVEANSSNSQKNEKALTNIQ [C8orf76]	4.93 ± 0.2	4.73 ± 0.21
CHELLGHVPLLAEPSFAQFSQEIG [TPH1]	3.1 ± 0.27	3.02 ± 0.26
